B1: V5-tagged full-length OX1R [mouse] / Myc-tagged Dynlt1 [mouse] (parent complex)
chain 1: MEPSATPGAQPGVPTSSGEPFHLPPDYEDEFLRYLWRDYLYPKQYEWVLIAAYVAVFLIALVGNTLVCLAVWRNHHMRTVTNYFIVNLSLADVLVTAICLPASLLVDITESWLFGQALCKVIPYLQAVSVSVAVLTLSFIALDRWYAICHPLLFKSTARRARGSILGIWAVSLAVMVPQAAVMECSSVLPELANRTRLFSVCDEHWADELYPKIYHSCFFIVTYLAPLGLMAMAYFQIFRKLWGRQIPGTTSALVRNWKRPSEQLEAQHQGLCTEPQPRARAFLAEVKQMRARRKTAKMLMVVLLVFALCYLPISVLNVLKRVFGMFRQASDREAVYACFTFSHWLVYANSAANPIIYNFLSGKFREQFKAAFSCCLPGLGPGSSARHKSLSLQSRCSVSKVSEHVVLTTVTTVLS
chain 2: MEDFQASEETAFVVDEVSSIVKEAIESAIGGNAYQHSKVNQWTTNVLEQTLSQLTKLGRPFKYIVTCVIMQKNGAGLHSASSCFWDSSTDGSCTVRWENKTMYCIVSTFGLSI

Variants of: B1
Assay: co-IP, quantification of Western blotting bands; parent: 100; read off a plot

Row | percent of parent [% vs OX1R wild-type] | Variant
1 | ~28 | chain 1 MEPSATPGAQPGVPTSSGEPFHLPPDYEDEFLRYLWRDYLYPKQYEWVLIAAYVAVFLIALVGNTLVCLAVWRNHHMRTVTNYFIVNLSLADVLVTAICLPASLLVDITESWLFGQALCKVIPYLQAVSVSVAVLTLSFIALDRWYAICHPLLFKSTARRARGSILGIWAVSLAVMVPQAAVMECSSVLPELANRTRLFSVCDEHWADELYPKIYHSCFFIVTYLAPLGLMAMAYFQIFRKLWGRQIPGTTSALVRNWKRPSEQLEAQHQGLCTEPQPRARAFLAEVKQMRARRKTAKMLMVVLLVFALCYLPISVLNVLKRVFGMFRQASDREAVYACFTFSHWLVYANSAANPIIYNFLSGKFREQFKAAFSCCLPGLGPGSSARHKSLSLQSRCSVSKVSEHVVLATVATVLS [chain 1 T409A, chain 1 T412A]
